Series [1] has as its system STAT1 (Tyr701-phosphorylated; GAF) (human (U6A cells)). The series can be described thus: EMSA. Conditions: Combined cytoplasmic and nuclear extracts of U6A cells (IFN-beta 500 U/ml or IFN-gamma 50 U/ml, 1 h), normalized for pY701-STAT1; 10 nM dsDNA probe; buffer ….
In series [2] the target is importin-α5 (UniProt P52294). The series can be described thus: anti-FLAG co-immunoprecipitation, immunoblot. Conditions: reference: STAT1-YFP wild type; sites Y701. In general terms: A western blot detects proteins with antibodies after separation by electrophoresis.
Series [3] has as its target STAT1 N domain (UniProt P42224). The series can be described thus: AUC; sedimentation equilibrium; STAT1 N domain and mEGFP-tagged STAT2 N domain at final equimolar concentrations of 2.5, 10 and 40 uM; heterodimer to monomers.
Series [4] concerns the target STAT2 N domain (human) (UniProt P52630). The series can be described thus: AUC; sedimentation equilibrium of one N domain alone; homodimer to monomers; concentrations not given.
The target in series [5] is STAT1 N domain (UniProt P42224). Described as above.
Sequence of STAT1 N domain (P42224 whole entry): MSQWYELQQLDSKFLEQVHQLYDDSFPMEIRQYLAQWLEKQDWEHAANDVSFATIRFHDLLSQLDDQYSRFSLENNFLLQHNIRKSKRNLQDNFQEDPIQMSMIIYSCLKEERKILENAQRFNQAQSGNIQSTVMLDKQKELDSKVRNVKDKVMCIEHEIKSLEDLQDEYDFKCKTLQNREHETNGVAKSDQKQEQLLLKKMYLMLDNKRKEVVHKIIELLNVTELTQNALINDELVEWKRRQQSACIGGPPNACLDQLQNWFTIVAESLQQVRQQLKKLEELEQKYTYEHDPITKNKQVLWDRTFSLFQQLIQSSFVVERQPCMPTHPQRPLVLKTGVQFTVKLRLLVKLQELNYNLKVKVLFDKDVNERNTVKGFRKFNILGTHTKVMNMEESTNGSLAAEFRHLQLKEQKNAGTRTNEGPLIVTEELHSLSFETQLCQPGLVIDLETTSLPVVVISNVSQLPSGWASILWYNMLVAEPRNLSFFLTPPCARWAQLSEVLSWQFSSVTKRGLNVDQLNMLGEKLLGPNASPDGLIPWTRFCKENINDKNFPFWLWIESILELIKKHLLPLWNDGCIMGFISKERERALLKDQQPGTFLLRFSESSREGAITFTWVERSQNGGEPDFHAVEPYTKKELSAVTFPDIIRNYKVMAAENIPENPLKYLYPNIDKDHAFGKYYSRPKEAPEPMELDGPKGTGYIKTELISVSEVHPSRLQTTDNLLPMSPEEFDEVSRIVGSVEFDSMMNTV

These results are taken from article PMC5079630.

With GAS (M67) probe, the binding signal (% of GAF activity without STAT2) in series [1] was 25.

For the substance “STAT1 (from UniProt P42224) STAT1-YFP Y701F”, the “binding against the reference” value in series [2] is on record as “lost”.

For the substance “STAT2 N domain LL81,82AA (from UniProt P52630 1-851) (domain or fragment)”, the dissociation constant Kd (as a rule, the free concentration of one partner at which half of the binding sites on the other are occupied at equilibrium, for simple one-to-one binding) in series [3] amounted to 5480 µM.

As for “STAT2 N domain (from UniProt P52630 1-851) (domain or fragment)”, the Kd stood at 704 µM in series [4] and 0.01 µM in series [3].

With “STAT1 N domain (from UniProt P42224 1-750) (domain or fragment)”, the Kd in series [5] came to 16.6 µM.
